Test results published in patent publication US20140227287A1 (Astellas, published 2014).

Experiments:
[1] = target: T1, mouse βNGF (R&D Systems, Inc.) (mouse, UniProt P01139 122-241); test: cell-based or functional assay
[2] = target: T2, human βNGF (R&D Systems, Inc.) (human, UniProt P01138 122-241); test: cell-based or functional assay
[3] = target: T2, human βNGF (R&D Systems, Inc.); test: isothermal titration calorimetry, human βNGF titrated into antibody in PBS, single site binding model
[4] = target: T2, human βNGF (R&D Systems, Inc.); test: competition ELISA: inhibition of biotin-labeled human βNGF binding to immobilized human trkA (Example 3)
[5] = target: T1, mouse βNGF (R&D Systems, Inc.); test: method of Example 3 with biotin-labeled mouse βNGF (Example 4)
[6] = target: T2, human βNGF (R&D Systems, Inc.); test: NGF-trkA binding inhibition ELISA and cell assays (Examples 3, 6, 7)
Description: (§1) Inhibitory activity was measured by the following method. The human trkA (R&D Systems, Inc.) was added to a white Maxisorp 384 plate (Nunc) at 60 ng/well and immobilized by being incubated overnight at 4° C. The next day, the plate was washed once with the TBST wash solution, a blocking agent (TBST containing 20% Blocking One (Nacalai Tesque, Inc.)) was then added thereto, and the plate was left to stand at room temperature for an hour. Subsequently, a mixture obtained by mixing the biotin-labeled human βNGF (0.2 μg/ml) prepared as above with the antibody prepared in Example 2 was added to the trkA-immobilized plate having undergone blocking. […] After an hour of incubation at room temperature, the plate was washed three times with the TBST wash solution and then supplemented with APU4 (BioFx) which is a reagent detecting chemiluminescence, and the amount of chemiluminescence was measured by an EnVision counter (PerkinElmer Co., Ltd.).
(§2) The inhibitory activity was measured by the following method. […] By operating the FLIPR, a mixed solution of the antibody obtained in Example 2 and βNGF was added to the plate at 50 μl/well (final NGF concentration of 100 ng/ml), and the change in intracellular Ca²⁺ concentration was measured.

[7] = target: T2, human βNGF (R&D Systems, Inc.); test: Fab fragments evaluated by the tests of Examples 3, 6 and 7
Description: as §1, §2

B1: PEGylated 1-15(N52D)-Fab′ (Fab, V domains shown)
VH: QVQLQQWGAGLLKPSETLSLTCAVYGGSFSGYYWSWVRQPPGKGLEWIGEIDHSGSTNNNPSLKSRVTISVGTSKNQFSLKLSSVTAADTAVYYCSRDGGPESGMGAFDIWGQGTMVTVSS
VL: not shown
modifications: 40 kDa PEG (maleimide, SUNBRIGHT GL2-400MA) on Cys of the carboxyl terminal (C226 based on EU index; Cys at position 230 of SEQ ID NO:10)
[1]
  IC50, inhibition of NGF-induced intracellular Ca2+ increase (method of Example 6): 0.069 µg/mL
  neutralizing activity relative to tanezumab (method of Example 6): ~3.3 times

B2: 1-15(N52D-A)-Fab′-5kPEG (Fab, V domains shown)
VH: QVQLQQWGAGLLKPSETLSLTCAVYGGSFSGYYWSWVRQPPGKGLEWIGEIDHSGSTNNNPSLKSRVTISVGTSKNQFSLKLSSVTAADTAVYYCSRDGGPESGMGAFDIWGQGTMVTVSS
VL: not shown
modifications: 5 kDa PEG conjugated by a procedure similar to Example 13 (hinge Cys)
[2]
  IC50, inhibition of NGF-induced intracellular Ca2+ increase (method of Example 6, final NGF concentration 50 ng/ml): 0.03 µg/mL

B3: 1-15(N52D-A)-Fab′-10kPEG (Fab, V domains shown)
VH: QVQLQQWGAGLLKPSETLSLTCAVYGGSFSGYYWSWVRQPPGKGLEWIGEIDHSGSTNNNPSLKSRVTISVGTSKNQFSLKLSSVTAADTAVYYCSRDGGPESGMGAFDIWGQGTMVTVSS
VL: not shown
modifications: 10 kDa PEG conjugated by a procedure similar to Example 13 (hinge Cys)
[2]
  IC50, inhibition of NGF-induced intracellular Ca2+ increase (method of Example 6, final NGF concentration 50 ng/ml): 0.028 µg/mL

B4: tanezumab (antibody, V domains shown)
VH: QVQLQESGPGLVKPSETLSLTCTVSGFSLIGYDLNWIRQPPGKGLEWIGIIWGDGTTDYNSAVKSRVTISKDTSKNQFSLKLSSVTAADTAVYYCARGGYWYATSYYFDYWGQGTLVTVSS
VL: DIQMTQSPSSLSASVGDRVTITCRASQSISNNLNWYQQKPGKAPKLLIYYTSRFHSGVPSRFSGSGSGTDFTFTISSLQPEDIATYYCQQEHTLPYTFGQGTKLEIKR
[3]
  -TΔS: -5.73 kcal/mol
  Kd: 20.4 nM
  ΔG: -10.5 kcal/mol
  ΔH: -4.76 kcal/mol
[4]
  IC50: 0.41 µg/mL
[1]
  IC50, inhibition of NGF-induced intracellular Ca2+ increase (method of Example 6): 0.23 µg/mL
[2]
  IC50, inhibition of NGF-induced intracellular Ca2+ increase (method of Example 6): 0.17 µg/mL

B5: antibody 1-15 (chimeric antibody) (antibody, V domains shown)
VH: QVQLQQWGAGLLKPSETLSLTCAVYGGSFSGYYWSWVRQPPGKGLEWIGEINHSGSTNNNPSLKSRVTISVGTSKNQFSLKLSSVTAADTAVYYCSRDGGPESGMGAFDIWGQGTMVTVSS
VL: not shown
notes: Heavy chain variable region has an N-glycosylation motif at N52 (Kabat)
[5]
  binding result: binds
[6]
  binding result: binds

B6: Fab fragment of antibody 1-15 (papain digest) (Fab, V domains shown)
VH: QVQLQQWGAGLLKPSETLSLTCAVYGGSFSGYYWSWVRQPPGKGLEWIGEINHSGSTNNNPSLKSRVTISVGTSKNQFSLKLSSVTAADTAVYYCSRDGGPESGMGAFDIWGQGTMVTVSS
VL: not shown
notes: also called monovalent antibody fragment of 1-15
[7]
  binding result: binds
